Four substances from paper doi:10.1101/2025.06.24.661301 can be followed below.

In assay [1] the target is Arp2/3 complex (human) (UniProt P61158). Briefly: SPR. A general note: In SPR one partner is held on a chip, and binding of the other changes the refractive index at the surface.
Assay [2] has the same target. Briefly: SPR. The source holds these as a separate data set.

For orientation: Kd means the constant that tells how readily two partners part at equilibrium.

Read-outs that look alike come from different tables or passages of the source.

Consider “Arpin CT peptide (residues 192-226) (from UniProt Q7Z6K5-1 192-226)”, for which the Kd with Arp2/3 complex (human) [1] came out at 17.8 µM.
Same read-out and setting: the same measure for “GST-aCT (chimeric protein with Arpin's CT fused to the C-terminus of glutathione S-transferase through the spacer -GSSG-)”: 2.5 µM.
As for “full-length Arpin (SEC fractions used in SPR) (from UniProt Q7Z6K5-1 1-226) (natural protein)”, the figures for the Kd with Arp2/3 complex (human) [2] and in the assay with Arp2/3 complex (human) [1] were 48.9 µM and 14.1 µM, respectively.
In the assay with Arp2/3 complex (human) [1], “human Arpin with the double-site alanine substitution F95A/M97A (from UniProt Q7Z6K5-1 1-226) (natural protein)” registered a Kd of 63.1 µM.
